Results reported in patent US20240376151A1, “STAPLED PEPTIDES AND METHODS THEREOF” (FOG PHARMACEUTICALS, INC., priority 2022, published 2024).
Each block holds one sequence with its values, some of them ahead of it. Numbered stars: 1 amine (or outer) side, 2 acyl side, 3 side chain; on linkers, the order of the positions; unused ones are H or OH. Bridge positions count the residues as written; N and C are the ends. Ends that are not written are not given here. Phenylene(1,4-NHCOCH2)2 = O=C(C[*:1])Nc1ccc(NC(=O)C[*:2])cc1

Target: T1, CHIP (Homo sapiens, UniProt Q9UNE7)
T1 construct: N-term truncated CHIP (also known as STUB1, Uniprot ID: Q9UNE7, residues 23-303); made in house; host or cells: E. coli BL21 CodonPlus
T1 sequence (Q9UNE7 23-303): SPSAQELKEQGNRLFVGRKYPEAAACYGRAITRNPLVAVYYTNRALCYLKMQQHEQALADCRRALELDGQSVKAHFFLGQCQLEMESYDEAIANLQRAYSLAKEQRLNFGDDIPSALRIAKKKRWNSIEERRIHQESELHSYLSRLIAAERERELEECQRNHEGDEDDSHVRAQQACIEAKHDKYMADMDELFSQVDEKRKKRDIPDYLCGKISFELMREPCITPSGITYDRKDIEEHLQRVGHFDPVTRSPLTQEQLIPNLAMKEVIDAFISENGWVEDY
Experiment: Naive Library Presenter Screening (phage, NGS), CHIP
Format: binding
Conditions: for interaction data, BLANK: Blank = Media only
Description: To conduct phage library screening, previously described procedures were utilized in accordance with the present disclosure.
Next-generation sequencing was performed as described in accordance with the present disclosure.
Hit ID and Clustering is performed according to a described procedure in accordance with the present disclosure.

[1] = CHIP clusters (C83, C84), first column
[2] = CHIP clusters (C83, C84), second column
[3] = CHIP clusters (C83, C84), target concentration 10 nM
[4] = CHIP clusters (C83, C84), target concentration 30 nM
[5] = CHIP clusters (C83, C84), target concentration 100 nM
[6] = CHIP clusters (C83, C84), target concentration 300 nM
[7] = CHIP clusters (C83, C84), target concentration 1000 nM, first column
[8] = CHIP clusters (C83, C84), target concentration 1000 nM, second column
[9] = CHIP target concentration 10 nM
[10] = CHIP target concentration 30 nM
[11] = CHIP target concentration 100 nM
[12] = CHIP target concentration 300 nM
[13] = CHIP target concentration 1000 nM, first column
[14] = CHIP target concentration 1000 nM, second column

Sequence: DPALEECTQAAHICMVD (linker 7-14 via Phenylene(1,4-NHCOCH2)2 (inferred); not fully specified (C-terminus))
interaction data, BLANK [1]: 0
interaction data, BLANK [2]: 0
interaction data at Target Concentration 10 [3]: 0
interaction data at Target Concentration 30 [4]: 0
interaction data at Target Concentration 100 [5]: 3
interaction data at Target Concentration 300 [6]: 14
interaction data at Target Concentration 1000 [7]: 26
interaction data at Target Concentration 1000 [8]: 10

Sequence: DPALWNCQYAAVMCTQL (linker 7-14 via Phenylene(1,4-NHCOCH2)2 (inferred); not fully specified (C-terminus))
interaction data, BLANK [1]: 0
interaction data, BLANK [2]: 0
interaction data at Target Concentration 10 [3]: 0
interaction data at Target Concentration 30 [4]: 0
interaction data at Target Concentration 100 [5]: 0
interaction data at Target Concentration 300 [6]: 14
interaction data at Target Concentration 1000 [7]: 34
interaction data at Target Concentration 1000 [8]: 75

Sequence: DPANHICHYAAHICDVD (DPANHICHYAAHICDVD-NH2; linker 7-14 via Phenylene(1,4-NHCOCH2)2 (inferred))
interaction data, BLANK [1]: 0
interaction data, BLANK [2]: 0
interaction data at Target Concentration 10 [3]: 0
interaction data at Target Concentration 30 [4]: 0
interaction data at Target Concentration 100 [5]: 3
interaction data at Target Concentration 300 [6]: 15
interaction data at Target Concentration 1000 [7]: 6
interaction data at Target Concentration 1000 [8]: 49

Sequence: DPASQWCQRAASICWID (DPASQWCQRAASICWID-NH2; linker 7-14 via Phenylene(1,4-NHCOCH2)2 (inferred))
interaction data, BLANK [1]: 0
interaction data, BLANK [2]: 0
interaction data at Target Concentration 10 [3]: 0
interaction data at Target Concentration 30 [4]: 0
interaction data at Target Concentration 100 [5]: 0
interaction data at Target Concentration 300 [6]: 15
interaction data at Target Concentration 1000 [7]: 18
interaction data at Target Concentration 1000 [8]: 8

Sequence: DPAVHNCSQAASICDVD (linker 7-14 via Phenylene(1,4-NHCOCH2)2 (inferred); not fully specified (C-terminus))
interaction data, BLANK [1]: 0
interaction data, BLANK [2]: 0
interaction data at Target Concentration 10 [3]: 0
interaction data at Target Concentration 30 [4]: 0
interaction data at Target Concentration 100 [5]: 0
interaction data at Target Concentration 300 [6]: 22
interaction data at Target Concentration 1000 [7]: 9
interaction data at Target Concentration 1000 [8]: 39

Sequence: DPAYDVCHFAAHICWID (linker 7-14 via Phenylene(1,4-NHCOCH2)2 (inferred))
interaction data, BLANK [1]: 0
interaction data, BLANK [2]: 0
interaction data at Target Concentration 10 [3]: 0
interaction data at Target Concentration 30 [4]: 0
interaction data at Target Concentration 100 [5]: 22
interaction data at Target Concentration 300 [6]: 19
interaction data at Target Concentration 1000 [7]: 20
interaction data at Target Concentration 1000 [8]: 62

Sequence: ICWAAWVSCS (linker 2-9 via Phenylene(1,4-NHCOCH2)2 (inferred))
interaction data at Target Concentration 10 [9]: 0
interaction data at Target Concentration 30 [10]: 0
interaction data at Target Concentration 100 [11]: 0
interaction data at Target Concentration 300 [12]: 25
interaction data at Target Concentration 1000 [13]: 42
interaction data at Target Concentration 1000 [14]: 17

Sequence: ICYNAWFECE (linker 2-9 via Phenylene(1,4-NHCOCH2)2 (inferred))
interaction data at Target Concentration 10 [9]: 0
interaction data at Target Concentration 30 [10]: 2
interaction data at Target Concentration 100 [11]: 9
interaction data at Target Concentration 300 [12]: 11
interaction data at Target Concentration 1000 [13]: 18
interaction data at Target Concentration 1000 [14]: 14

Sequence: ICYTAWLECE (linker 2-9 via Phenylene(1,4-NHCOCH2)2 (inferred))
interaction data at Target Concentration 10 [9]: 0
interaction data at Target Concentration 30 [10]: 1
interaction data at Target Concentration 100 [11]: 5
interaction data at Target Concentration 300 [12]: 9
interaction data at Target Concentration 1000 [13]: 7
interaction data at Target Concentration 1000 [14]: 12

Sequence: PCFEAWVMCEI (linker 2-9 via Phenylene(1,4-NHCOCH2)2 (inferred))
interaction data at Target Concentration 10 [9]: 4
interaction data at Target Concentration 30 [10]: 83
interaction data at Target Concentration 100 [11]: 121
interaction data at Target Concentration 300 [12]: 285
interaction data at Target Concentration 1000 [13]: 375
interaction data at Target Concentration 1000 [14]: 297

Sequence: PCWDAWMLCTD (linker 2-9 via Phenylene(1,4-NHCOCH2)2 (inferred))
interaction data at Target Concentration 10 [9]: 19
interaction data at Target Concentration 30 [10]: 142
interaction data at Target Concentration 100 [11]: 542
interaction data at Target Concentration 300 [12]: 632
interaction data at Target Concentration 1000 [13]: 701
interaction data at Target Concentration 1000 [14]: 581

Sequence: PCWNAWLYCSN (linker 2-9 via Phenylene(1,4-NHCOCH2)2 (inferred))
interaction data at Target Concentration 10 [9]: 0
interaction data at Target Concentration 30 [10]: 0
interaction data at Target Concentration 100 [11]: 11
interaction data at Target Concentration 300 [12]: 105
interaction data at Target Concentration 1000 [13]: 155
interaction data at Target Concentration 1000 [14]: 58

Sequence: PCWNAWMVCSV (linker 2-9 via Phenylene(1,4-NHCOCH2)2 (inferred))
interaction data at Target Concentration 10 [9]: 2
interaction data at Target Concentration 30 [10]: 44
interaction data at Target Concentration 100 [11]: 334
interaction data at Target Concentration 300 [12]: 474
interaction data at Target Concentration 1000 [13]: 690
interaction data at Target Concentration 1000 [14]: 691

Second part, the sequence after the results:

interaction data, BLANK [1]: 0
interaction data, BLANK [2]: 0
interaction data at Target Concentration 10 [3]: 0
interaction data at Target Concentration 30 [4]: 0
interaction data at Target Concentration 100 [5]: 0
interaction data at Target Concentration 300 [6]: 15
interaction data at Target Concentration 1000 [7]: 7
interaction data at Target Concentration 1000 [8]: 29
Sequence: DPAMWHCQYAAIMCNAN (DPAMWHCQYAAIMCNAN-NH2; linker 7-14 via Phenylene(1,4-NHCOCH2)2 (inferred))

interaction data, BLANK [1]: 0
interaction data, BLANK [2]: 0
interaction data at Target Concentration 10 [3]: 0
interaction data at Target Concentration 30 [4]: 0
interaction data at Target Concentration 100 [5]: 0
interaction data at Target Concentration 300 [6]: 47
interaction data at Target Concentration 1000 [7]: 25
interaction data at Target Concentration 1000 [8]: 57
Sequence: DPAQDNCHYAAHICMVD (DPAQDNCHYAAHICMVD-NH2; linker 7-14 via Phenylene(1,4-NHCOCH2)2 (inferred))

interaction data, BLANK [1]: 0
interaction data, BLANK [2]: 0
interaction data at Target Concentration 10 [3]: 0
interaction data at Target Concentration 30 [4]: 0
interaction data at Target Concentration 100 [5]: 0
interaction data at Target Concentration 300 [6]: 48
interaction data at Target Concentration 1000 [7]: 79
interaction data at Target Concentration 1000 [8]: 17
Sequence: DPAQYNCYFAANICTVD (DPAQYNCYFAANICTVD-NH2; linker 7-14 via Phenylene(1,4-NHCOCH2)2 (inferred))

interaction data, BLANK [1]: 0
interaction data, BLANK [2]: 0
interaction data at Target Concentration 10 [3]: 0
interaction data at Target Concentration 30 [4]: 0
interaction data at Target Concentration 100 [5]: 0
interaction data at Target Concentration 300 [6]: 21
interaction data at Target Concentration 1000 [7]: 16
interaction data at Target Concentration 1000 [8]: 22
Sequence: DPAVRWCAAAAAICMVD (linker 7-14 via Phenylene(1,4-NHCOCH2)2 (inferred); not fully specified (C-terminus))

interaction data at Target Concentration 10 [9]: 1
interaction data at Target Concentration 30 [10]: 2
interaction data at Target Concentration 100 [11]: 13
interaction data at Target Concentration 300 [12]: 16
interaction data at Target Concentration 1000 [13]: 21
interaction data at Target Concentration 1000 [14]: 20
Sequence: ICYNARLECE (linker 2-9 via Phenylene(1,4-NHCOCH2)2 (inferred))

interaction data at Target Concentration 10 [9]: 0
interaction data at Target Concentration 30 [10]: 1
interaction data at Target Concentration 100 [11]: 5
interaction data at Target Concentration 300 [12]: 7
interaction data at Target Concentration 1000 [13]: 11
interaction data at Target Concentration 1000 [14]: 9
Sequence: ICYNAWLECA (linker 2-9 via Phenylene(1,4-NHCOCH2)2 (inferred))

interaction data at Target Concentration 10 [9]: 1
interaction data at Target Concentration 30 [10]: 2
interaction data at Target Concentration 100 [11]: 10
interaction data at Target Concentration 300 [12]: 21
interaction data at Target Concentration 1000 [13]: 19
interaction data at Target Concentration 1000 [14]: 23
Sequence: ICYNAWVECE (linker 2-9 via Phenylene(1,4-NHCOCH2)2 (inferred))

interaction data at Target Concentration 10 [9]: 1
interaction data at Target Concentration 30 [10]: 3
interaction data at Target Concentration 100 [11]: 13
interaction data at Target Concentration 300 [12]: 25
interaction data at Target Concentration 1000 [13]: 22
interaction data at Target Concentration 1000 [14]: 28
Sequence: ICYSAWLECE (linker 2-9 via Phenylene(1,4-NHCOCH2)2 (inferred))

interaction data at Target Concentration 10 [9]: 0
interaction data at Target Concentration 30 [10]: 0
interaction data at Target Concentration 100 [11]: 4
interaction data at Target Concentration 300 [12]: 124
interaction data at Target Concentration 1000 [13]: 194
interaction data at Target Concentration 1000 [14]: 145
Sequence: PCWEAWLWCSM (linker 2-9 via Phenylene(1,4-NHCOCH2)2 (inferred))
